These are literature values, as cited in patent US12478627B2, “Irsogladine for the treatment of eosinophilic gastrointestinal diseases” (EPITHELION SCIENCE BIOTECH, S.L., priority 2019, dated 2025).

For the data set, the system named is EoE and EoGIDs. To be noted: patients with EoE or EoGIDs, literature reports.

B1: Mepolizumab: mAb against IL-5 (antibody, chains of the INN, looked up, V domains shown)
VH: QVTLRESGPALVKPTQTLTLTCTVSGFSLTSYSVHWVRQPPGKGLEWLGVIWASGGTDYNSALMSRLSISKDTSRNQVVLTMTNMDPVDTATYYCARDPPSSLLRLDYWGRGTPVTVSS
VL: DIVMTQSPDSLAVSLGERATINCKSSQSLLNSGNQKNYLAWYQQKPGQPPKLLIYGASTRESGVPDRFSGSGSGTDFTLTISSLQAEDVAVYYCQNVHSFPFTFGGGTKLEIK
Turning to B1, the clinical symptoms entry was “did not correspond with clinical improvement” and the tissue eosinophil infiltrate result is given as “significant reduction”.

B2: Resolizumab: mAb against IL-5 (antibody, chains of the INN, looked up, V domains shown)
VH: EVQLVESGGGLVQPGGSLRLSCAVSGLSLTSNSVNWIRQAPGKGLEWVGLIWSNGDTDYNSAIKSRFTISRDTSKSTVYLQMNSLRAEDTAVYYCAREYYGYFDYWGQGTLVTVSS
VL: DIQMTQSPSSLSASVGDRVTITCLASEGISSYLAWYQQKPGKAPKLLIYGANSLQTGVPSRFSGSGSATDYTLTISSLQPEDFATYYCQQSYKFPNTFGQGTKVEVK
B2: the clinical symptoms entry is “did not correspond with clinical improvement” and the tissue eosinophil infiltrate result was “significant reduction”.
